Experimental findings from patent publication US20250034536, “POLYNUCLEOTIDES ENCODING ENGINEERED MEGANUCLEASES HAVING SPECIFICITY FOR RECOGNITION SEQUENCES IN THE DYSTROPHIN GENE” (Precision BioSciences, Inc., published 2025) are described below.

Assay in all cases: cell_activity; MRC5 cells, 2 ng mRNA; also active in CHO GFP reporter
Conditions in all cases: tags: N-terminal SV40 NLS

The target of data set [1] is T1, DMD 35-36x.63 (synthetic construct).
T1 chain: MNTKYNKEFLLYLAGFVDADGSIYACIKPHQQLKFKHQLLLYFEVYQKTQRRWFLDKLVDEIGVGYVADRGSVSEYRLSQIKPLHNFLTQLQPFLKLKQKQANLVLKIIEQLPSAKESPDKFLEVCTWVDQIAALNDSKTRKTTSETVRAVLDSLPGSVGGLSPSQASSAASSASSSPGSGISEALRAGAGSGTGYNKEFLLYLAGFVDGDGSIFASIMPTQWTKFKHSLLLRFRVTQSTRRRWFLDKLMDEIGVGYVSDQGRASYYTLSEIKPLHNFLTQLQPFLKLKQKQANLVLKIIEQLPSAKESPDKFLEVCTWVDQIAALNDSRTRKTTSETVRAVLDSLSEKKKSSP
The method, then: (§1) In these experiments, 1e6 MRC5 cells were electroporated with 2 ng or 100 ng mRNA encoding DMD meganucleases (DMD 19-20x.13, DMD 19-20x.87, DMD 29-30x.18, DMD 29-30x.40, DMD 35-36x.63, DMD 35-36x.81, DMD 37-38x.15, DMD 37-38x.66, or DMD 37-38x.79), or GFP using the Lonza Amaxa 4D system. Cells were collected at two days post electroporation for gDNA preparation and evaluated for transfection efficiency using a Beckman Coulter CytoFlex S cytometer. Transfection efficiency exceeded 90%. Additional time points were collected at five- and eight-days post electroporation for gDNA extractions. gDNA was prepared using the Macherey Nagel NucleoSpin Blood QuickPure kit.

Data set [2] has as its target T2, DMD 35-36x.81 (synthetic construct).
T2 chain: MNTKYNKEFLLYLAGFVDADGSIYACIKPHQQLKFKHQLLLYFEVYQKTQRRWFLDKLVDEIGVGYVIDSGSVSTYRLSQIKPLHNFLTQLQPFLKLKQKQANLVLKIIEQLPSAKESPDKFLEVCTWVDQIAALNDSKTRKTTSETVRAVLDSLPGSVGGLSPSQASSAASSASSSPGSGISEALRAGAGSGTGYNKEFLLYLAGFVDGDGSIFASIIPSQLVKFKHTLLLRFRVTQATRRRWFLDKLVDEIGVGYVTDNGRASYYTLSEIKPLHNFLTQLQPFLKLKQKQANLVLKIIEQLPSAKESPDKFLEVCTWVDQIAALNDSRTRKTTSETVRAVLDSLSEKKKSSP
The method, then: as §1

The target of data set [3] is T3, DMD 37-38x.66 (synthetic construct).
T3 chain: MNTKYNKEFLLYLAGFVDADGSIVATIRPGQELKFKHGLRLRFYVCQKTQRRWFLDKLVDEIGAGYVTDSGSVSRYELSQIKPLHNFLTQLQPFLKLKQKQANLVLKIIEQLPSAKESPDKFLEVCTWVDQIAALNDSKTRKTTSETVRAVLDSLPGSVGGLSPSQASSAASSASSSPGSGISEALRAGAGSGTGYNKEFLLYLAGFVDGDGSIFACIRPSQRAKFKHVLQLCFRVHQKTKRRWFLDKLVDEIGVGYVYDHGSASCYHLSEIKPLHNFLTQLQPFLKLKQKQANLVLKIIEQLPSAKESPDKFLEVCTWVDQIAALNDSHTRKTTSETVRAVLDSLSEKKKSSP
As to the method:
as §1

Data set [4] concerns the target T4, DMD 37-38x.15 (synthetic construct).
T4 chain: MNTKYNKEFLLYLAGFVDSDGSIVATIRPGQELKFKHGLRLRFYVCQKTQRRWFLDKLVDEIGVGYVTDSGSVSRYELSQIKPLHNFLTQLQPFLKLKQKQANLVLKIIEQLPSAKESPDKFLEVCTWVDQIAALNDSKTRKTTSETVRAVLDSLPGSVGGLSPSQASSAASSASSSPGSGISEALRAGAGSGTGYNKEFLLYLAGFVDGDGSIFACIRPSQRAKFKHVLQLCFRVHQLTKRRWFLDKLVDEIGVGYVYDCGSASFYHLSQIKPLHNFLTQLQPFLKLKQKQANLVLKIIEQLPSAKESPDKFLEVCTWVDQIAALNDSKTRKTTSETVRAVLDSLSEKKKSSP
As to the method: as §1

The target of data set [5] is T5, DMD 37-38x.79 (synthetic construct).
T5 chain: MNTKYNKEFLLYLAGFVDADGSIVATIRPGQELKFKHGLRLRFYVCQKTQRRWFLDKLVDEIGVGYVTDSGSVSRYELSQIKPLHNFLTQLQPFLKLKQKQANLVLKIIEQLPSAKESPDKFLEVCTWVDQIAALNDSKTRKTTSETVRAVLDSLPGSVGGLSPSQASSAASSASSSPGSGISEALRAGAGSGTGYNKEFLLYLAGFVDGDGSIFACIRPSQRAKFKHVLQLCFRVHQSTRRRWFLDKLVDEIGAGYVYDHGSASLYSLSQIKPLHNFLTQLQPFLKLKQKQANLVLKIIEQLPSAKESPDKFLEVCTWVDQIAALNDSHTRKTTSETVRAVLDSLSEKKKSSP
The method, then:
as §1

B1: DMD 35-36 recognition sequence (dsDNA)
DNA 1: CTACATGGTGTATCTGACTAAG
DNA 2: CTTAGTCAGATACACCATGTAG
On to B1, for which the activity in data set [1] and in data set [2] was greater than 30 % indel throughout.

B2: DMD 37-38 recognition sequence (dsDNA)
DNA 1: CTGGCCGAAGTATAGGAATATG
DNA 2: CATATTCCTATACTTCGGCCAG
As for B2, the activity in data set [3], in data set [4] and in data set [5] was greater than 30 % indel each time.
